Measurements taken from patent US20190300613A1 (TUSK THERAPEUTICS, published 2019).

Legend:
[1] = target: T1, recombinant human CD25 his tagged (human, UniProt P01589 22-240); assay: SPR, Biacore 2000: IgG1 captured on the chip, rhCD25-his tag as analyte
T1 construct: also called rhCD25; rhCD25-his tag; not shown: His tag
T1 sequence: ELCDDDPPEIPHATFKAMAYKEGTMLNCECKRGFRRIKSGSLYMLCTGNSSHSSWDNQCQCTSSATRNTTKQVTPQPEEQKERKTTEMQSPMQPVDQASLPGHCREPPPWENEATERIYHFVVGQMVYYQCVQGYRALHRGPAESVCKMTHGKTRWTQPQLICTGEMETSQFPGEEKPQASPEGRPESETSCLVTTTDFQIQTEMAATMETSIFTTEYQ

[2] = target: T1, recombinant human CD25 his tagged; assay: BLI, ForteBio Octet Red96, IgG on AHC sensors, rhCD25-His in solution, global 1:1 fit
Method: Sensors were equilibrated off-line in assay buffer for 10 min and then monitored on-line for 60 seconds for baseline establishment. […] Then, 1:3 serial dilutions (from 1 uM to 4 nM) of recombinant human CD25 HIS tagged was associated to the loaded IgG for 10 min. Afterwards they were transferred to assay buffer for 6.6 min for off-rate measurement. Kinetics data were fit using a global 1:1 binding model in the ForteBio Data Analysis Software 9.0 with reference subtraction.

[3] = target: T2, human CD25 expressed on cells (human, UniProt P01589 22-272); assay: flow cytometry on CD3/CD28 bead activated human Pan T cells, gated on CD4+ T cells
T2 construct: Endogenous CD25 on human cell lines and primary cells
T2 sequence: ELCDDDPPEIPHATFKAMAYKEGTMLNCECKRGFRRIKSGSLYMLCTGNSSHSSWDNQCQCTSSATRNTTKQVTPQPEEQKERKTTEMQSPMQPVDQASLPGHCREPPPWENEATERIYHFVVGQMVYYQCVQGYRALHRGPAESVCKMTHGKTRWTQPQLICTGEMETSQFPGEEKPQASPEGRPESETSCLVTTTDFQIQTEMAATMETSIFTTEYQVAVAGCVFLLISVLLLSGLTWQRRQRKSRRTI
Method: (§1) Binding to CD25 expressing activated human and Cynomolgus monkey PMBC was examined by staining test articles (anti-CD25 primary antibodies) with 20 μg/ml antibodies followed by semi-log dilution series (7-point) for 30 minutes on ice. This was followed by staining with a secondary antibody (rabbit anti-human Fcg F(ab′)2-(Jackson ImmunoResearch)) concentration of 5 μg/ml for 30 minutes on ice. All samples were stained in triplicates. To minimize cross-linking induced cell death mediated by binding of the secondary antibody, cell lines were examined in staining cohorts of 4 test articles at a time. Live lymphocytes were gated using FSC vs SSC parameters by flow cytometry during sample acquisition. Mean fluorescence intensity (MFI) of gated CD4⁺ and CD8⁺ T cell subsets were plotted on an XY chart, graphing MFI against the log of the concentration, and the data fit to a non-linear regression curve from which the EC50 was calculated.

[4] = target: T2, human CD25 expressed on cells; assay: flow cytometry on CD3/CD28 bead activated human Pan T cells, gated on CD8+ T cells
Method: as §1

[5] = target: T1, recombinant human CD25 his tagged; assay: SPR, Biacore 2000, IgG captured by anti-human antibody on CM5, rhCD25-His as analyte, two state reaction fit
Method: Anti-human antibody was initially immobilised across all flow cells in analysis buffer (pH 7.4, 10 mM HEPES, 150 mM NaCl, 3 mM EDTA, 0.05% Tween 20) to an RU of between 12,000-14,000 over 10 minutes. […] Dissociation was performed in analysis buffer over 10 minutes. Regeneration steps between sample concentrations were performed in 10 mM Glycin pH1.7 for 10 minutes. A flow rate of 25 μl/min was maintained throughout the process. Kinetics data were fit using a global two state reaction conformational change analysis software provided by Biacore with reference subtraction.

[6] = target: T3, human CD25 antigen, R&D Systems cat no. 223-2A/CF (~10% dimer) (human, UniProt P01589 22-213, limits assumed); assay: SPR, Biacore T200, antibody captured by anti-human Fab on CM5, CD25 as analyte, Two State Reaction fit; column printed as 'Binding strength'
T3 construct: Bought protein; also called R&D Systems (~10% dimer)
T3 sequence: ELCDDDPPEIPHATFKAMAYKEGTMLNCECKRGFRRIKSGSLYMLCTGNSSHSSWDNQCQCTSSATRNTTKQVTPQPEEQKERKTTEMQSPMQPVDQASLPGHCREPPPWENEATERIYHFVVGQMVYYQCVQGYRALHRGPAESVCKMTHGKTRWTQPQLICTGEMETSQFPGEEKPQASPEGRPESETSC
From the text: (§2) Binding of CD25 antibodies to human CD25 antigen was investigated by surface plasmon resonance using a BIACORE T200 instrument (GE Healthcare).
(§3) For calculation of KD and kinetic parameters Biacore provided fitting models were used to obtain optimal curve fitting results. The 1:1 Langmuir fit was used for P1AA5872 and the Two State Kinetic fitting for CD25 from Sino Biologicals and R&D Systems.

[7] = target: T4, inhouse produced monomeric human CD25 antigen (P1AA5872) (human, UniProt P01589 22-240, limits assumed); assay: SPR, Biacore T200, antibody captured by anti-human Fab on CM5, monomeric CD25 as analyte, 1:1 Langmuir fit; column printed as 'Binding strength'
T4 construct: also called Inhouse (0% dimer)
T4 sequence: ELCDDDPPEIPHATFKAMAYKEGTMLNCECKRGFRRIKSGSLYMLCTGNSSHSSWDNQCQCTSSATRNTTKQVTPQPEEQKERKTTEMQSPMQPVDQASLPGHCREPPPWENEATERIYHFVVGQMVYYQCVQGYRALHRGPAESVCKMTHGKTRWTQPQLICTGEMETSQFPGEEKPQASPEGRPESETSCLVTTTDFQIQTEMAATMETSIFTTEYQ
From the text: as §2, §3

[8] = target: T5, human CD25 antigen, Sino Biologicals cat no. 10165-H08H (~20% dimer) (human, UniProt P01589 22-213); assay: SPR, Biacore T200, antibody captured by anti-human Fab on CM5, CD25 as analyte, Two State Reaction fit; column printed as 'Binding strength'; Sino Biological CD25 (~20% dimer), Two State Reaction fit
T5 construct: Bought protein; also called Sino biological (~20% dimer)
T5 sequence: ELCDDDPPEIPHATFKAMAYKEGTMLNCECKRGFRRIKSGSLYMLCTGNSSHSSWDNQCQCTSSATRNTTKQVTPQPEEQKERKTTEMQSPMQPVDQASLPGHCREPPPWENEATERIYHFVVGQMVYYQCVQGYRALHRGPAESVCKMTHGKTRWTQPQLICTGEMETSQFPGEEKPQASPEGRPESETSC
From the text: as §2, §3

[9] = target: T1, recombinant human CD25 his tagged; assay: SPR, Biacore 2000: IgG1 captured on the chip, rhCD25-his tag as analyte; remark: listed apart in the source
[10] = target: T1, recombinant human CD25 his tagged; assay: as above; remark: listed apart in the source
[11] = target: T1, recombinant human CD25 his tagged; assay: as above; remark: listed apart in the source
[12] = target: T1, recombinant human CD25 his tagged; assay: as above; remark: listed apart in the source

B1: aCD25-a-646-m2 (antibody, IgG1, V domains shown)
VH: QVQLVESGGGLVQPGGSLRLSCAASGFTFPSYGMHWVRQAPGKGLEWVAVIWYDAINKYYADSVKGRFTISRDNSKNTLYLQMNSLRAEDTAVYYCARDLGYGDYAAHDYWGQGTLVTVSS
VL: DIQMTQSPSTLSASVGDRVTITCRASQSISSWLAWYQQKPGKAPKLLIYKASSLESGVPSRFSGSGSGTEFTLTISSLQPDDFATYYCQQHNTHPYTFGGGTKVEIK
With B1 the Kd [1] was 0.36 nM.

B2: aCD25-a-646 (antibody, V domains shown)
VH: QVQLVESGGGVVQPGRSLRLSCAASGFTFSSYGMHWVRQAPGKGLEWVAVIWYDGSNKGYADSVKGRFTISRDNSKNTLYLQMNSLRAEDTAVYYCARDLGYGDYAAHDYWGQGTLVTVSS
VL: DIQMTQSPSTLSASVGDRVTITCRASQSISSWLAWYQQKPGKAPKLLIYKASSLESGVPSRFSGSGSGTEFTLTISSLQPDDFATYYCQQHNTHPYTFGGGTKVEIK
notes: also called parental clone
With B2 the Kd [2] was 3.65 nM, the “EC50 (read off the curve)” value [3] was about 0.2 µg/mL and the “EC50 (read off the curve)” value [4] was about 0.2 µg/mL. The Kd [5] was 3.8 nM, the Kd [6] was 15 nM and the Kd [7] was 77 nM. It also gave a Kd [8] of 8.5 nM.

B3: aCD25-a-646-m1 (antibody, IgG1, V domains shown)
VH: EVQLVESGGGLVKPGGSLRLSCAASGFTFASYGMHWVRQAPGKGLEWVAVIWYDASTKYYADSVKGRFTISRDNSKNTLYLQMNSLRAEDTAVYYCARDLGYGDYAAHDYWGQGTLVTVSS
VL: DIQMTQSPSTLSASVGDRVTITCRASQSISSWLAWYQQKPGKAPKLLIYKASSLESGVPSRFSGSGSGTEFTLTISSLQPDDFATYYCQQHNTHPYTFGGGTKVEIK
With B3 the Kd [9] was 1.43 nM.

B4: aCD25-a-646-m3 (antibody, IgG1, V domains shown)
VH: QVQLVESGGGVVQPGRSLRLSCAASGFTFPSYGMHWVRQAPGKGLEWVAVIWYDAVNKYYADSVKGRFTISRDNSKNTLYLQMNSLRAEDTAVYYCARDLGYGDYAAHDYWGQGTLVTVSS
VL: DIQMTQSPSTLSASVGDRVTITCRASQSISSWLAWYQQKPGKAPKLLIYKASSLESGVPSRFSGSGSGTEFTLTISSLQPDDFATYYCQQHNTHPYTFGGGTKVEIK
B4 was tested, and the Kd [10] was 0.42 nM.

B5: aCD25-a-646-m4 (antibody, IgG1, V domains shown)
VH: QVQLVESGGGVVQPGRSLRLSCAASGFTFPSYGMHWVRQAPGKGLEWVAVIWYDASTKYYADSVKGRFTISRDNSKNTLYLQMNSLRAEDTAVYYCARDLGYGDYAAHDYWGQGTLVTVSS
VL: DIQMTQSPSTLSASVGDRVTITCRASQSISSWLAWYQQKPGKAPKLLIYKASSLESGVPSRFSGSGSGTEFTLTISSLQPDDFATYYCQQHNTHPYTFGGGTKVEIK
B5 was tested, and the Kd [11] was 0.56 nM.

B6: aCD25-a-646-m5 (antibody, IgG1, V domains shown)
VH: EVQLLESGGGLVQPGGSLRLSCAASGFTFPSYGMHWVRQAPGKGLEWVAVIWYDALNKYYADSVKGRFTISRDNSKNTLYLQMNSLRAEDTAVYYCARDLGYGDYAAHDYWGQGTLVTVSS
VL: DIQMTQSPSTLSASVGDRVTITCRASQSISSWLAWYQQKPGKAPKLLIYKASSLESGVPSRFSGSGSGTEFTLTISSLQPDDFATYYCQQHNTHPYTFGGGTKVEIK
With B6 the Kd [12] was 0.31 nM.
